One block for each binder: values may come before it.
B3: TBK1 CTD (residues 677–729) (domain or fragment, human, UniProt Q9UHD2 677-729, looked up)
chain: YPSSNTLVEMTLGMKKLKEEMEGVVKELAENNHILERFGSLTMDGGLRNVDCL
notes: For the crystal with NAP1 TBD it was made as a NAP1(215–254)-TEV site-TBK1 CTD fusion that was cut with 3C and TEV; not shown: Trx-His6 (pET-32M) or GST (pET-GST), N-terminal, cleaved
B4: TBK1 CTD(E696K) (domain or fragment, human, UniProt Q9UHD2 677-729, looked up)
chain: YPSSNTLVEMTLGMKKLKEKMEGVVKELAENNHILERFGSLTMDGGLRNVDCL
notes: also called TBK1 E696K mutant; not shown: Trx-His6 (pET-32M) or GST (pET-GST), N-terminal, cleaved

Assays:
[1] = biological target: the molecule itself; assay: SEC-MALS; 100 μl at 20 μM on Superose 12 10/300 GL; 50 mM Tris-HCl, 100 mM NaCl, 1 mM DTT, 1 mM EDTA, pH 7.5
[2] = biological target: T1, GST-tagged OPTN(26–119) M44Q (human, UniProt Q96CV9 26-119, M44Q); assay: pull-down; GST-tagged OPTN and Trx-His-tagged TBK1 mixed at 1:4, glutathione sepharose 4B beads; 50 mM Tris pH 7.5, 100 mM NaCl, 1 mM DTT, 1 mM EDTA; Coomassie or anti-His blot; conditions: both partners purified
T1 construct: source: E. coli BL21 (DE3), purified (glutathione sepharose 4B, size-exclusion chromatography); not shown: GST, N-terminal, kept

[3] = biological target: T2, GST-tagged OPTN(26–119) L47Q (human, UniProt Q96CV9 26-119, L47Q); assay: as above; conditions: both partners purified
T2 construct: source: E. coli BL21 (DE3), purified (glutathione sepharose 4B, size-exclusion chromatography); not shown: GST, N-terminal, kept

[4] = biological target: T3, GST-tagged OPTN(26–119) L54Q (human, UniProt Q96CV9 26-119, L54Q); assay: as above; conditions: both partners purified
T3 construct: source: E. coli BL21 (DE3), purified (glutathione sepharose 4B, size-exclusion chromatography); not shown: GST, N-terminal, kept

OPTN(26–119) = biological target: T4, OPTN(26–119) (human, UniProt Q96CV9 26-119); assay: ITC; 25 °C; 50 mM Tris pH 7.5, 100 mM NaCl, 1 mM EDTA, 1 mM DTT; 1 mM TBK1 fragment in the syringe, 0.1 mM OPTN or NAP1 fragment in the cell; one-site binding model; conditions: both partners purified
T4 construct: A Se-Met labelled form was used for the 2.5 Å crystal structure with TBK1 CTD; also called OPTN NTD; not shown: Trx-His6 (pET-32M) or GST (pET-GST), N-terminal, cleaved

OPTN(26–119) E50K = biological target: T5, OPTN(26–119) E50K (human, UniProt Q96CV9 26-119, E50K); assay: as above; conditions: both partners purified
T5 construct: also called OPTN E50K mutant; not shown: Trx-His6 (pET-32M) or GST (pET-GST), N-terminal, cleaved

OPTN(1–119) = biological target: T6, OPTN(1–119) (human, UniProt Q96CV9 1-119); assay: as above; conditions: both partners purified
T6 construct: not shown: Trx-His6 (pET-32M) or GST (pET-GST), N-terminal, cleaved
T6 sequence (Q96CV9 1-119): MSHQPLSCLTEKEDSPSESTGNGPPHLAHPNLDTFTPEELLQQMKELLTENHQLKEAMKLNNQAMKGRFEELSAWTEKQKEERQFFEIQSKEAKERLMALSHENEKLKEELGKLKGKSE

[5] = biological target: the molecule itself; assay: crystal structure; NAP1 TBD/TBK1 CTD complex made as a fusion through a TEV site and cut with 3C and TEV; 1% tryptone, 0.05 M HEPES pH 7.0, 12% PEG 3350, 16 °C; 1.5 Å
TBK1 CTD(E696K) = biological target: B4; assay: ITC; 25 °C; 50 mM Tris pH 7.5, 100 mM NaCl, 1 mM EDTA, 1 mM DTT; 1 mM TBK1 fragment in the syringe, 0.1 mM OPTN or NAP1 fragment in the cell; one-site binding model; conditions: both partners purified
[6] = biological target: B3; assay: as above; conditions: both partners purified
[7] = biological target: the molecule itself; assay: crystal structure; OPTN(26–103) or OPTN(26–103) E50K with TBK1 CTD; 0.1 M MES pH 6.0, 14% PEG 4000, 16 °C; 2.05 Å and 2.5 Å

B1: OPTN(1–119) E50K mutant (domain or fragment, human, UniProt Q96CV9 1-119, looked up)
chain: MSHQPLSCLTEKEDSPSESTGNGPPHLAHPNLDTFTPEELLQQMKELLTKNHQLKEAMKLNNQAMKGRFEELSAWTEKQKEERQFFEIQSKEAKERLMALSHENEKLKEELGKLKGKSE
notes: not shown: Trx-His6 (pET-32M) or GST (pET-GST), N-terminal, cleaved
stoichiometry N [1]: 4

binding result [2]: binds
binding result [3]: binds
binding result [4]: binds
B2: Trx-His-tagged TBK1 CTD (residues 677–729) (domain or fragment, human, UniProt Q9UHD2 677-729, looked up)
chain: YPSSNTLVEMTLGMKKLKEEMEGVVKELAENNHILERFGSLTMDGGLRNVDCL
notes: source: E. coli BL21 (DE3), purified (Ni-NTA, size-exclusion chromatography); not shown: Trx, N-terminal, kept; His6, N-terminal, kept

Binder: B3
Kd (OPTN(26–119)): ~2500 nM
stoichiometry N (OPTN(26–119)): 1.15
fold increase of binding affinity against the wild-type OPTN (OPTN(26–119) E50K): ~43 fold
Kd (OPTN(1–119)): ~2500 nM
binding result [5]: binds

Binder: B4
stoichiometry N (OPTN(26–119)): 0.58

binding result (TBK1 CTD(E696K)): binds
Kd [6]: ~720 nM
B5: NAP1 TBD (residues 215–254) (domain or fragment, human, UniProt Q9H6S1 215-254, looked up)
chain: SSDNMQHAYWELKREMSNLHLVTQVQAELLRKLKTSTAIK
notes: For the crystal it was made as a NAP1(215–254)-TEV site-TBK1 CTD fusion that was cut with 3C and TEV; also called NAP1(215–254); not shown: Trx-His6 (pET-32M) or GST (pET-GST), N-terminal, cleaved

B6: OPTN(26–103) (domain or fragment, human, UniProt Q96CV9 26-103, looked up)
chain: HLAHPNLDTFTPEELLQQMKELLTENHQLKEAMKLNNQAMKGRFEELSAWTEKQKEERQFFEIQSKEAKERLMALSHE
notes: Forms a dimer in the crystal of the complex with TBK1 CTD; also called short OPTN fragment; not shown: Trx-His6 (pET-32M) or GST (pET-GST), N-terminal, cleaved
binding result [7]: binds

B7: OPTN(26–103) E50K (domain or fragment, human, UniProt Q96CV9 26-103, looked up)
chain: HLAHPNLDTFTPEELLQQMKELLTKNHQLKEAMKLNNQAMKGRFEELSAWTEKQKEERQFFEIQSKEAKERLMALSHE
notes: as for B1
binding result [7]: binds

Reference: PMC5027247, “Structural insights into the interaction and disease mechanism of neurodegenerative disease-associated optineurin and TBK1 proteins” (Nature Communications, 2016)
